Measurements from paper doi:10.1101/473132.

Target: H3K9me3 mononucleosome with one disulfide bridge between H3 I62C and H4 A33C (oxidized) (X. laevis)
Assay: fluorescence polarisation

Swi6 (S. pombe HP1 protein), sequence (P40381 whole entry): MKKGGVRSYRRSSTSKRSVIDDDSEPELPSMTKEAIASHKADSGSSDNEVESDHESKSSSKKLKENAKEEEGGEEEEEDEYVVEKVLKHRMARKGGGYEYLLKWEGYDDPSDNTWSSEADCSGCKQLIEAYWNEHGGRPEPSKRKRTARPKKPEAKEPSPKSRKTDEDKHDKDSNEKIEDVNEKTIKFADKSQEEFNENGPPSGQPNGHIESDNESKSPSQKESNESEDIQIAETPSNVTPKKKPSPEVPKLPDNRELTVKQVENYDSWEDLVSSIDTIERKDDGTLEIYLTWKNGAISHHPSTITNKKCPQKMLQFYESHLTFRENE

Kd: 300 nM
Substance: Swi6 (S. pombe HP1 protein) (from UniProt P40381 1-328) (natural protein)
